Results on 1 protein are retold here after article doi:10.1101/2025.01.14.632876v1.

Substrate in the data set: NC(=O)c1ccc[n+]([C@@H]2O[C@H](COP(=O)(O)OP(=O)(O)OC[C@H]3O[C@@H](n4cnc5c(N)ncnc54)[C@H](O)[C@@H]3O)[C@@H](O)[C@H]2O)c1
Nature of the data set: purified protein. Conditions: G6PDH activity, co-substrate G6P, 2 M KCl, 100 mM Tris-HCl pH 8.5.

B1: HvG6PDH (Haloferax volcanii DS2) (protein)
chain: MDQPVLLTGAGGRVGQAILGHIGDAYDWRLLDREPLSDEKIPDSVDSTEVYVADVTDETAVRNAMDGVHAVIHLAGDPRPEAPWDSVLRNNIDGTQQMFDAAVDVGVEKFAFASSNHAVGAYETTDRTPDMYRPHHEFRLDGTELPRPSNLYGVSKAAGETLGRYYHDHHDISVVNVRIGNLTQHHPPKEYERGQAMWLSYRDCGHLFECCIEADYDYEIVYGISDNDRKYYSIDRARAVLGYDPQDNSAEFTFEGEPLDEA
A word on the Km: it is the substrate concentration at which the rate is half of its maximum. For orientation: kcat means the number of substrate molecules converted per active site and unit of time at saturation. For B1, the Michaelis-Menten constant (Km) came out at 198 ± 6 µM and the kcat turned out to be 42.5 ± 0.1 s⁻¹.
